# Measurements as given in the DeepSol protein solubility set.
# Assay: soluble on expression in E. coli; label from the status in PepcDB or PDB records
row,Sequence,soluble on expression in E. coli
1,TEQERLELEAAAFRRLVAHLDSRKDVQNIDLMNLSGFCRNCLSKWYKAAADEKHIDITLDDAREVVYGMPYSEWKANYQKEASAEQQAAFVKESKH,not soluble
2,TFDIDLQQYGEKLLQNKIGCVVAIEPQTGEILAFISSPTYDPNLLTGRKYSANYKELEKDPYKPLFNRPLMAMYPPGSIFKLAQAAVALQEGVITDKSRFPCDKTLVNCHNHPSPQDLRGAIQWSCNPYFYMVYKKMISQDKNPNKFKDTEINFDEWRHNMLTLGFGQKMLVDLPSSKSGNIPSNAYYDKIYGDLHWKFSTIYSLSIGQGEINVVPIQMANLAALIANKGWYITPHFIKSIGKDGHILEEYKNKHVTSVEPKYFEPIIDGMEQVVLGGTAYWLKIKDIDICGKTGTAENPHGDDHSVYIAFAPKKEPKIAIAVYVENAGFGAMTAAPIAHLMIEKYLKDTITRKPLEDMILNKNLLHKVKVKP,not soluble
3,TFGEEESEACKKAFDLSPFPLLSKQKEAVFTAIESSISAIIGGAGTGKTTVLHAVLTAFEALGYVSDASLCPDKTTTNHNIKTMALSCRAAKRMRDCINKSSDGSRRERQISATSIAQFIHQTVIEDAEGKYLVVIDEASMLDVATMYNIITNIHPNVRILLVGDHYQLPPI,not soluble
4,TGLRPSGTVSCPICMDGYSEIVQNGRLIVSTECGHVFCSQCLRDSLKNANTCPTCRKKINHK,soluble
5,TGRGVKYWFCYGTKCYYFIMNKTTWSGCKANCQHYSVPIVKIEDEDELKFLQRHVIPEGYWIGLSYDKKKKEWAWIDNGPSKFDMKIRKMNFKSRGCVFLSKARIEDTDCNIPYYCICGKKLDKFPD,soluble
6,TGSGELLLTSPKGSLTLFAYPGKPSLVTVSDFSAGLLDGTVAVNHMDYDLKSKHTETLVQLNGIPIQSLLDLQGASKLSATGTIRGAIPVVLDNNLFSIPEGRMDAEKNGLIIYASTPEERAAAGAGMRLTYEALGNFFYSELVSNIVMTPDGNSTISIQLKGRNPDFQNNRPVNLNLNIQQNLLDLFRSLTLSSDIEEAISKKVLENSGG,not soluble
7,THPVEAAERNYERARAELNQANEDVARNQERQAKAVQVYNSRKSELDAANKTLADAIAEIKQFNRFAHDPMAGGHRMWQMAGLKAQRAQTDVNNKQAAFDAAAKEKSDADAALSAAQERRKQKENKEKDAKDKLD,soluble
8,TKDFNWNTDFIFSNAKNEVTDLKQNANVMELISGNGFAKQGYPVRGLFSIPFVGLDKDGIPVIINEKGEATSTDINFQERQNTGFLKYEGPTDPTITGSLGNMFSYKGFRLNLFITYSFGNVIRLNPVFKAYYSDLTAMTREFKNRWTLPGDEAKTNVPAILSKRMYDSNEDLKYAYNAYNYSTERIAKGDFIRLKEISLAYDFPKAWINPLKLTDLSLKVQATNLFLIYADDKLNGQDPEFFNAGGVASPVPRQFTITLRLGL,not soluble
9,TKDFSWTTAFNLSHNKNKILKLADLPWFVDGRYVRKEGYPFNTIYLREYAGVDPETGSALYYDNQQDENGNYTKNKVTDPGQASPIPLKDITPTISGGFMNTFNYKFIDLSFNLSYSFGGYSYDNASYILQDDGYSVISNKSTEQRRRWQKPGDITDVPRFVYGNKKGGNYNSSRAIHSTDHIRLKSLILGLNAPKAWLQKLGIGNARIYFSGTNLLTWAAYDQYDPEMSGVVGFYTPPLKTYAFGLELKF,not soluble
10,TKDFSWTTSLNLSHNKNKIVKLADLPEFIDGNYIRKEGCSYATIYLREYAGVDPNDGRPMYYDNKEDENGNRSRNIVYDPNDADRVELKDIYPKLTGGLMNTFNYKFIDLSFNLSFHLGGYSYDGAMYALQDDGYTAQYNKSTELRRRWKQPGDITDVPRYVYGQEYGGWWNSSRGVHSTDHLRLKSLIVGVSAPQSWLRTIGINSARIYFSGTNLLTWAAYDQYDPELNGIVSYFTPPLKTFAFGLELKF,not soluble
11,TKDFTWDLSYNITWNHNEITKLTGGDDSDYYVEAGDKISRGNNTKVQAHKVGYAANSFYVYQQVYDENGKPIENMFVDRNGNGTIDSGDKYIYKKPAGDVLMGLTSKMQYKNFDFSFSLRASLNNYVYYDFLSNKANVSTSGLFSNNAYSNTSAEAVALGLSGQGDYMSDYFIHNASFLRCDNITLGYSFQNLWKTQTYKGVGGRVYATVQNPFIISKYKGLDPEVKSGIDANPYPRAMTFLLGLSLQF,not soluble
12,TKVKSIPLLIVPPWINKYYILDLSPHNSLIRWLVEQGITVFIISWVNPDETYANKSFYDYLNEGPREAIAVIQKQLRVKQVNTLGFCIGGTLLASLLAYNKATKDHSIRSATFLAAMIDFSDPGDIAVFIDEQQINKLEEEMKSKGYLAGKFMASSFNSLRANDLIWSFFIKNYLRGKSPVPFDILYWNADSTNMPATMHSQYLRWMYLHNNLIKPGKIRLNHIPIDVTNIDIPTFFLSTQKDHIAPWKTTYKGFELMKGPKRFVLGGSGHI,not soluble
13,TLLHPLLMRNGDSRPLHKPTTPLPSLDLLTPPPSEVEPVDTFALEQMARLVEARLADFRIKADVVNYSPGPVITRFELNLAPGVKAARISNLSRDLARSLSTVAVRVVEVIPGKPYVGLELPNKKRQTVYLREVLDNAKFRDNPSPLTVVLGKDIAGEPVVADLAKMPHLLVAGTTGSGASVGVNAMILSMLYKAQPEDVRFIMIDPKMLELSVYEGIPHLLTEVVTDMKDAANALRWCVNEMERRYKLMSALGVRNLAGYNEKIAEADRMMRPIPDPYWKPGDSMDAQHPVLKKEPYIVVLVDEFADLMMTVGKKVEELIARLAQKARAAGIHLVLATQRPSVDVITGLIKANIPTRIAFTVSSKIDSRTILDQAGAESLLGMGDMLYSGPNSTLPVRVHGAFVRDQEVHAVVQDWKARGRPQYVDGITSDSESEGGAGGFDGAEELDPLFDQAVQFVTEKRKASISGVQRQFRIGYNRAARIIEQMEAQGIVSEQGHNGNREVLAPPPFD,soluble
14,TLTIYPAAKPNGLAVVACPGGGYIRLAMNHEGHDMADWFNAQGITYAVLKYRMPNGHHDVPLSDAHQAIRLMREHANEWHIQKVGIMGASAGGHLASTAATHYTAGTRPDFQILFYPVISMDLSNCHKGSRDNLLGKSPSEELVRLYSNELQVTGDTPPAFIMHSSDDGAVPVSNSVSYYLALVKNKVPASLHTYPIGGHGWGFRDSFTYKRQWTGELEKWLREIL,not soluble
15,TNAKASKRVYITFTGYDKKPSIDNLKKLDMSITSNPSKCTHLIAPRILRTSKFLCSIPYGPCVVTMDWINSCLKTHEIVDEEPYLLNDPEKELELGCTLESALKRARAQGPSLLEDYVVYLTSKTVAPENVPAVISIVKSNGGVCSTLNVYNKRLARHLEDGNVVLITCNEDSHIWTNFLDNASQNKTIFLQNYDWLIKTVLRQEIDVNDRIADEFARAV,soluble
16,TNLFHTYQYGKETMRGGSELTLKQSGAPTDQVTHENKSGLDKAYITQWSYGIGETWSLLIPDIKGGSSGYLGYDEKVMETVNPSYAQAIARMNRYWGDQP,not soluble
17,TNSAVVDVSFGFPSLVGFTFMSEMVHQFKMTFPKARVSMYEAQLSAFLPAIRDGRLDFAIGTLSDEMKLQDLHVEPLFESEFVLVANRARIGNGTVRLASLQHEQWVLPETNMGYYSELLTTLQRSGIRRENIVNTDSVVTIYNLVLNAD,not soluble
18,TNVISTLDLNLLTKGGGSWNVDGVNMKKSAVTTFDGKRVVKAVYDKNSGTSANPGVGGFSFSAVPDGLNKNAITFAWEVFYPKGFDFARGGKHGGTFIGHGAASGYQHSKTGASNRIMWQEKGGVIDYIYPPSDLKQKIPGLDPEGHGIGFFQDDFKNALKYDVWNRIEIGTKMNTFKNGIPQLDGESYVIVNGKKEVLKRINWSRSPDLLISRFDWNTFFGGPLPSPKNQVAYFTNFQMKKYELEHHHHHH,soluble
19,TPQQRRLSMARRTAASLGYNECVSYTFIDQASAALFGGGTDATMLENPISSEMSHMRPDLLPGLLAAAARNQARGFADLALFEAGPVFHGGEPGEQRAQIAGLLVGRTGPKDVHGAARAVDLYDAKADAEAVLAAMGAPAKVQILRDGDGWWHPGRHGRICLGPKKVLGVFGELHPRVLQAMDVKGPAVAFVLWPEEVPLPRKSGTTRAALAL,not soluble
20,TPQSITRKVARYIPGTVEHLQEQQQYARKIRDVTAQKVDQFSNVFHALSESFATFYQASDEQTDDSEVDLFLSKITEHSCQTCYKKNRCWVQNFDKTYDLMKQVMLETEEKEYASNRRLKKEFQQYCSKSKQVEELIEDELAHHHAHLTLKKKVQDSRRLVAEQLLGVSEVMADFSREIKREREQHFLQEEQIIEALQHFGIEIQHVEIYSLEQGNIDIEMTIPFSGHGESEKIIAPMLSDILEEQILVKAEQHSPHPNGYSHVAFGSTKSYRVSTGAAHAAKGGGLVSGDSYSMMELGARKYAAAISDGMGNGARAHFESNETIKLLEKILESGIDEKIAIKTINSILSLRTTDEIYSTLDLSIIDLQDASCKFLKVGSTPSFIKRGDQVMKVQASNLPIGIINEFDVEVVSEQLKAGDLLIMMSDGIFEGPKHVENHDLWMKRKMKGLKTNDPQEIADLLMEEVIRTRSGQIEDDMTVVVVRIDHNTPKWASIPVPAIFQNKQEI,not soluble
21,TPYDPLTLWTTPDPPPNCSLIQELDAKLTLCLTKNGSIVNGIVSLVGVKGNLLNIQSTTTTVGVHLVFDEQGRLITSTPTALVPQASWGYRQGQSVSTNTVTNGLGFMPNVSAYPRPNASEAKSQMVSLTYLQGDTSKPITMKVAFNGITSLNGYSLTFMWSGLSNYINQPFSTPSCSFSYITQE,soluble
22,TRELEDAQAMTEGERRKLASVIAYMTDGVIATNRNGAIILLNSPALELLNVSRETALEMPITSLLGLQENYTFEDLVEQQDSMLLEIERDDELTVLRVNFSVIQREHGKIDGLIAVIYDVT,not soluble
23,TRIPGVRLMRAEQAYPRSPVFYEPRICILAQGQKIGFLGGETYRYDAERYLVMSVPLPFECETHASAAEPLLGVSVDVDIGTLKELLLQMEEAPGSDDDNELAPSAPMASVPLDAGMADAVMRLLGCLQSPLDSHILGPQLVREIIFRALRSEQGNAL,not soluble
24,TSQIRQNYSTEVEAAVNRLVNLHLRASYTYLSLGFFFDRDDVALEGVGHFFRELAEEKREGAERLLEFQNDRGGRALFQDVQKPSQDEWGKTQEAMEAALAMEKNLNQALLDLHALGSARADPHLCDFLESHYLDKEVKLIKKMGNHLTNLRRVAGPQPAQTGAPQGSLGEYLFERLTLKHD,soluble
25,TSRKLNDAANERLAAQQDLRNAATLIVRDARMAGGFGCFNMSEHPATDVIPDTTQQNSPFSLKRNGIDKLIPIAESSNINYQNFFQVGSALIFQYGIDD,not soluble
26,TSTDWKEAKSFLKGLSDKQREEHYFCKDFVRLKKIPTWKEMAKGVAVKVEEPRYKKDKQLNEKISLLRSDITKLEVDAIVNAANSSLLGGGGVDGCIHRAAGPLLTDECRTLQSCKTGKAKITGGYRLPAKYVIHTVGPIAYGEPSASQAAELRSCYLSSLDLLLEHRLRSVAFPCISTGVFGYPCEAAAEIVLATLREWLEQHKDKVDRLIICVFLEKDEDIYRSRLPHYFPVA,soluble
27,TVKSGLILQSISNDVYHNLAVEDWIHDHMNLEGKPVLFLWRNSPTVVIGRHQNPWQECNLNLMREEGVKLARRRSGGGTVYHDMGNINLTFFTTKKKYDRMENLKLVVRALKAVHPHLDVQATKRFDLLLDGQFKISGTASKIGRNAAYHHCTLLCGTDGTFLSSLLKSPYQGIRSNATASTPALVKNLMEKDPTLTCEVVINAVATEYATSHQIDNHIHLINPTDETVFPGINSKAIELQTWEWIYGKTPKFSVDTSFTVLHEQSHVEIKVFIDVKNGRIEVCNIEAPDHWLPLEICDQLNSSLIGSKFSPIETTVLTSILHRTYPGDDELHSKWNILCEKIKGIM,soluble
